The record followed here is paper PMC7619462.

In assay [1] the target is T1, NPR-33 (C. elegans) (UniProt O62189).
T1 sequence: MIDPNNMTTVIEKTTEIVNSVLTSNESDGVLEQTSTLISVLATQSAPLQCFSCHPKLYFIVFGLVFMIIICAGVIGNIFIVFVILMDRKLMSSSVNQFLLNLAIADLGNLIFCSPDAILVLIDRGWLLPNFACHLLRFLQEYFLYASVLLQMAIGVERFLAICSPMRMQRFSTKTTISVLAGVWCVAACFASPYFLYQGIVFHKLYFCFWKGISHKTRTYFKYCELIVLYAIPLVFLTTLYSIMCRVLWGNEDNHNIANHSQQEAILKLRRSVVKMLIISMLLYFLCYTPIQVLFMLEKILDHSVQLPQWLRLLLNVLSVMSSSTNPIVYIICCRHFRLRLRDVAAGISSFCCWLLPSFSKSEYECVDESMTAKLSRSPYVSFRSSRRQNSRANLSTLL

Assay [2] has as its target NPR-44 (C. elegans) (UniProt Q9N5L5).
Sequence of UniProt Q9N5L5 (Q9N5L5 entry or part of it): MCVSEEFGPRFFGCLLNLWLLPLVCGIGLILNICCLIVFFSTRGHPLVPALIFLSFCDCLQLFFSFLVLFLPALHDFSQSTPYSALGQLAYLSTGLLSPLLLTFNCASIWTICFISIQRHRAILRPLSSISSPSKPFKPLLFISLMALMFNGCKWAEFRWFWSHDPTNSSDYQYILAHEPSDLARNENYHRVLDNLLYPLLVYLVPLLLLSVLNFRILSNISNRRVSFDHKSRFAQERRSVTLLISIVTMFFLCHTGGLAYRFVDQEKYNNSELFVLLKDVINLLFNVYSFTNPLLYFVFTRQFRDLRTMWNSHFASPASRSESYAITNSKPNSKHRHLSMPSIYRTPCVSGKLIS

B1: NLP-70-1 (peptide)
peptide: WYEWNNDMEIT
As for B1, the EC50 of receptor activation: calcium mobilization (aequorin) in CHO cells co-expressing the GPCR and Gα16, concentration-response curve, n = 6 in assay [1] came out at 1.16 µM.

B2: NLP-69-1 (peptide)
peptide: LHRIGGNIVM
In the case of B2, the EC50 of receptor activation: calcium mobilization (aequorin) in CHO cells co-expressing the GPCR and Gα16, concentration-response curve, n = 6; also significant calcium response at 10 μM in assay [2] stood at 0.232 µM.

B3: NLP-70-2 (peptide)
peptide: WYDWQNVPHALQQ
As to B3, the EC50 of receptor activation: calcium mobilization (aequorin) in CHO cells co-expressing the GPCR and Gα16, concentration-response curve, n = 6; also significant calcium response at 10 μM in assay [1] is 0.0763 µM.
